# Assay results from US20230250189A1 (HEIDELBERG PHARMA RESEARCH, published 2023).
# Positions count from the first letter of the chain named.
# B1: 3F11-var 6 (antibody, human IgG1, kappa, V domains shown)
# VH: QVQLVQSGAEVKKPGASVKVSCKASGYTFTYFDINWLRQAPGQGLEWMGGISPGDGNTNYAQKFQGRVTLTIDTSTSTAYMELSSLRSEDTAVYYCARDGNFPYYAMDSWGQGTLVTVSS
# VL: DIVMTQSPLSLPVTPGEPASISCRSSQSLVHSNGQTYLHWYLQKPGQSPQLLIYTVSNRFSGVPDRFSGSGSGTDFTLKISRVEAEDVGVYYCSQSTHVPTFGGGTKVEIKR
# notes: Expressed from pXC-IgG1zadeltaK and pXC-Kappa vectors
# B2: 3F11-var 13 (antibody, human IgG1, kappa, V domains shown)
# VH: B1 VH with A61N, Q62E, K63N, Q65K, T74K, Y95F
# VL: B1 VL with N33S, L42Q, F60A, V90T
# notes: as for B1
# B3: 3F11-var 15 (antibody, human IgG1, kappa, V domains shown)
# VH: B1 VH with T58V
# VL: B1 VL with N33S, L42Q, F60A, V90T
# notes: as for B1
# B4: 3F11-var 14 (antibody, human IgG1, kappa, V domains shown)
# VH: B1 VH
# VL: B1 VL with N33S, L42Q, F60A, V90T
# notes: as for B1
# B5: 3F11-var 8 (antibody, human IgG1, kappa, V domains shown)
# VH: B1 VH with G56S, T58V
# VL: B1 VL
# notes: as for B1
# B6: 3F11-var 5 (antibody, human IgG1, kappa, V domains shown)
# VH: B1 VH with A61N, Q62E, K63N, Q65K, T74K, Y95F
# VL: B1 VL
# notes: as for B1
# B7: 3F11-var 10 (antibody, human IgG1, kappa, V domains shown)
# VH: B1 VH
# VL: B1 VL with N33S
# notes: as for B1
# B8: 3F11-var 2 (antibody, human IgG1, kappa, V domains shown)
# VH: B1 VH
# VL: B1 VL with Q35N, Y41F, Y92F
# notes: as for B1
# B9: 3F11-var 7 (antibody, human IgG1, kappa, V domains shown)
# VH: B1 VH with T58V
# VL: B1 VL
# notes: as for B1
# B10: 3F11-var 3 (antibody, human IgG1, kappa, V domains shown)
# VH: B1 VH with T58V
# VL: B1 VL with Q35N, Y41F, Y92F
# notes: as for B1
# B11: 3F11-var 11 (antibody, human IgG1, kappa, V domains shown)
# VH: B1 VH with T58V
# VL: B1 VL with N33S
# notes: as for B1
# B12: 3F11-var 16 (antibody, human IgG1, kappa, V domains shown)
# VH: B1 VH with G56S, T58V
# VL: B1 VL with N33S, L42Q, F60A, V90T
# notes: as for B1
# B13: 3F11-var 9 (antibody, human IgG1, kappa, V domains shown)
# VH: B1 VH with A61N, Q62E, K63N, Q65K, T74K, Y95F
# VL: B1 VL with N33S
# notes: as for B1
# B14: 3F11-var 12 (antibody, human IgG1, kappa, V domains shown)
# VH: B1 VH with G56S, T58V
# VL: B1 VL with N33S
# notes: as for B1
# B15: 3F11-var 4 (antibody, human IgG1, kappa, V domains shown)
# VH: B1 VH with G56S, T58V
# VL: B1 VL with Q35N, Y41F, Y92F
# notes: as for B1
# B16: 3F11-var 1 (antibody, human IgG1, kappa, V domains shown)
# VH: B1 VH with A61N, Q62E, K63N, Q65K, T74K, Y95F
# VL: B1 VL with Q35N, Y41F, Y92F
# notes: as for B1
# Target: T1, Prostate specific membrane antigen (PSMA) (human, UniProt Q04609 1-750)
# T1 construct: whole, on cells; The background says that PSMA is a homodimer when enzymatically active; also called glutamate carboxypeptidase II; GCPII
# T1 sequence (Q04609 whole entry): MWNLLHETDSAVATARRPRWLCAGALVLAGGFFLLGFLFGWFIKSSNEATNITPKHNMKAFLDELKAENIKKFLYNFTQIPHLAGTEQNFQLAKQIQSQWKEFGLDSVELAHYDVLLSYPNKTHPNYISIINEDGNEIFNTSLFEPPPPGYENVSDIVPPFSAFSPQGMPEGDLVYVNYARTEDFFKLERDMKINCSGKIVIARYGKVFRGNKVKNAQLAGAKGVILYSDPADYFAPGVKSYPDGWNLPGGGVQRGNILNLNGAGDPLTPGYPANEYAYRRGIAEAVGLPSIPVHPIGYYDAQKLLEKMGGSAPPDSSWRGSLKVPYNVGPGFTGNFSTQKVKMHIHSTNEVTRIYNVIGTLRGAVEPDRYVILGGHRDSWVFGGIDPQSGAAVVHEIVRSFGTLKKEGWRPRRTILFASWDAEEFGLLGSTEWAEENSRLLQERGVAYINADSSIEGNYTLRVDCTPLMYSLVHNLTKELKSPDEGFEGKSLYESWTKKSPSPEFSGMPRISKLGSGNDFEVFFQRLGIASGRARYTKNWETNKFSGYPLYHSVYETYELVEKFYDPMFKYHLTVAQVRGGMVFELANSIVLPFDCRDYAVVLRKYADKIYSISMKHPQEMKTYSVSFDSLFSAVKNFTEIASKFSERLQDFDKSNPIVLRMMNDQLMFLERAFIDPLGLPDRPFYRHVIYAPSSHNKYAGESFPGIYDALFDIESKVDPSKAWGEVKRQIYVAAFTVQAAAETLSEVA
# Assay: flow cytometry on LNCAP cells, FITC anti-human IgG
# Method: (§1) Pre-confluent LNCAP cells at 80-90% confluence were washed and detached from the plates with trypsin prior to 1-hour incubation at 37° C., 5% CO₂ in the flasks to restore cell surface proteins. Cells were washed and adjusted to 1×10₆ cells/ml in staining media (RPMI-1640, 25 mM HEPES, 3% h.i. FBS and 0.02% sodium azide). Various concentrations of the monoclonal antibody samples (murine wt and 16 humanized variants) ranging from 50 to 0.0032 μg/ml were prepared in staining media and incubated with the cells in pre-cooled 96-well plates for 30 min. on ice to allow antibody binding to the LNCAP cell surface. Subsequently, cells were washed at 4° C. with PBS to remove free antibody, and bound antibody was labelled with FITC goat anti-human IgG H&L preabsorbed (Abcam) secondary antibody for 30 min. on ice. Finally, cells were washed, fixed and FITC fluorescence associated to the antibody bound to the cells was measured by flow cytometry (GUAVA 8HT Cytometer). Data was analyzed using Incyte GuavaSoft 2.7 software (Merck-Millipore). The obtained dose-response data (plotted as log-transformed dose vs. response) typically produced sigmoidal curves with variable slope which were fitted to a 4-parameter logistic dose-response equation using GraphPad Prism software. The EC₅₀ dose, defined as the concentration of antibody that provides half of maximal target cell binding, was used to compare the bioactivity of different antibody variants. Data points represent the average of duplicate wells and standard error of the mean (SEM).
row,EC50 [µg/mL],Binder
1,0.219,B1
2,0.25,B2
3,0.244,B3
4,0.272,B4
5,0.204,B5
6,0.304,B6
7,0.284,B7
8,0.273,B8
9,0.178,B9
10,0.264,B10
11,0.339,B11
12,0.248,B12
13,0.281,B13
14,0.329,B14
15,0.373,B15
16,0.29,B16

# Target: T1, Prostate specific membrane antigen …
# Assay: flow cytometry on LNCAP cells, FITC anti-human IgG
# Remark: another data set of the same source
# Method: as §1
row,EC50 [µg/mL],Binder
1,0.219,B1
2,0.25,B2
3,0.244,B3
4,0.272,B4
5,0.204,B5
6,0.304,B6
7,0.284,B7
8,0.273,B8
9,0.178,B9
10,0.264,B10
11,0.339,B11
12,0.248,B12
13,0.281,B13
14,0.329,B14
15,0.373,B15
16,0.29,B16
